Data reported in paper doi:10.1101/2020.05.03.074682.
pKd: −log10 of the molar value.

Target: biotinylated C-terminal cytosolic tail of GCS
Experiment: ITC

pKd: 5.70
Substance: GRASP domain of GRASP55 (recombinant, used for ITC) (domain or fragment)
